Results published in patent US20260193638A1.

What was measured:
[1] = molecular target: recombinant native human IGF-1 (human) (UniProt P05019); assay: SPR at 37 °C, antibody captured, analyte in solution
[2] = molecular target: T1, Thermus thermophilus SlyD-IGF-1 (74-90) chimeric polypeptide; assay: ELISA, undiluted culture supernatant
T1 sequence: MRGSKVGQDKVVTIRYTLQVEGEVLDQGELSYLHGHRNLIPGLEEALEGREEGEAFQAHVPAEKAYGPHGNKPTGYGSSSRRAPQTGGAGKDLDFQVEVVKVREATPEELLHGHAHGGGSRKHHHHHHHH

[3] = molecular target: T2, recombinant wild-type Thermus thermophilus SlyD (His6 tagged control) (Thermus thermophilus); assay: ELISA, undiluted culture supernatant
T2 sequence: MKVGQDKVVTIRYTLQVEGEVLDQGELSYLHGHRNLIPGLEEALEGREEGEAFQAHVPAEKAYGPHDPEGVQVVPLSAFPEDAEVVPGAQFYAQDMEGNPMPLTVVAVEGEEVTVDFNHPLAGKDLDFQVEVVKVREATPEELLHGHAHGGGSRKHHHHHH

[4] = molecular target: recombinant native human IGF-1 (human) (UniProt P05019); assay: ELISA, undiluted culture supernatant
[5] = molecular target: T1, Thermus thermophilus SlyD-IGF-1 (74-90) chimeric polypeptide; assay: SPR at 25 °C, antibody captured, antigen in solution
[6] = molecular target: recombinant native human IGF-1 (human) (UniProt P05019); assay: as above
[7] = molecular target: T1, Thermus thermophilus SlyD-IGF-1 (74-90) chimeric polypeptide; assay: SPR at 37 °C, antibody captured, analyte in solution
[8] = molecular target: recombinant native human IGF-1 (human) (UniProt P05019); assay: as above; remark: listed apart in the source

B1: monoclonal antibody M-10.7.9 (antibody, from a related filing, V domains shown)
VH: QVQLQQSGAELVRPGSSVKISCKASGYAFSSYWMNWVKQRPGQGLEWIGQIYPGDGDTNHNGKFKGKATLTADKSSSTVYMQLSSLTSEDSAVYFCARSGDYYGKDYWGQGTTLTVSS
VL: DIVLTQTPPSLPVNMGQKATISYKATKSLLNTDGYTYMHWNQQKPGQPPKLLIYLVSNRESGVPDRFSGSGSGTDFTLNINTVEEEDAATYYCHHSNELPHTFGAGTKLEIK
Ka [1]: 2.2e+08 M⁻¹
Kd [1]: 4.5 nM
koff [1]: 0.006 s⁻¹
kon [1]: 1.3e+06 M⁻¹ s⁻¹
t/2-diss [1]: 2 min
reactivity [2]: 1900 mE
reactivity [3]: 36 mE
reactivity [4]: 2110 mE
Kd [5]: 2.4 nM
MR [5]: 1.8
koff [5]: 0.00069 s⁻¹
kon [5]: 290000 M⁻¹ s⁻¹
t/2-diss [5]: 17 min
Kd [6]: 1.6 nM
MR [6]: 1.7
koff [6]: 0.0015 s⁻¹
kon [6]: 920000 M⁻¹ s⁻¹
t/2-diss [6]: 8 min
koff [7]: 1e-05 s⁻¹
t/2-diss [7]: 1160 min
koff [8]: 1e-05 s⁻¹
t/2-diss [8]: 1160 min

B2: monoclonal antibody M-11.11.17 (antibody, from a related filing, V domains shown)
VH: QVQLQQSGAELVRPGSSVKISCKASGYAFSNLWMNWVKQRPGQGLEWIGQIYPGDGDTNYYGDFKGKATLTADSSSSTAYMQLSRLTSEDSAVYFCARIGYYGMDYWGQGTSVTVSS
VL: DVVLTQTPLSLPVNIGDEASISCKSTKSLLSSDGLTYLDWYLQKPGQSPQVLIYLVSNRFSGVPDRFSGSGSGTDFTLKISRVEAEDLGVYYCFQSNYLPTFGAGTKLELK
Ka [1]: 2.2e+10 M⁻¹
Kd [1]: 0.046 nM
koff [1]: 0.00014 s⁻¹
kon [1]: 3.1e+06 M⁻¹ s⁻¹
t/2-diss [1]: 81 min
reactivity [2]: 2150 mE
reactivity [3]: 32 mE
reactivity [4]: 2430 mE
Kd [5]: 0.01 nM
MR [5]: 2
koff [5]: 1e-05 s⁻¹
kon [5]: 710000 M⁻¹ s⁻¹
t/2-diss [5]: 1110 min
Kd [6]: 0.01 nM
MR [6]: 2
koff [6]: 2.1e-05 s⁻¹
kon [6]: 2e+06 M⁻¹ s⁻¹
t/2-diss [6]: 560 min
koff [7]: 1e-05 s⁻¹
t/2-diss [7]: 1160 min
koff [8]: 1e-05 s⁻¹
t/2-diss [8]: 1160 min
